Experimental data reported in publication doi:10.1101/2020.01.22.914192, “CryoEM structures of human CMG - ATPγS - DNA and CMG - AND-1 complexes”.

Target: CMG helicase (Cdc45-MCM2-7-GINS) (human, UniProt P49736;P25205;P33991;P33992;Q14566;P33993;O75419;Q14691;Q9Y248;Q9BRX5;Q9BRT9 …)
Experiment: cryoEM structure (3.29 A); ATPgS 100 uM; 5 mM Mg acetate; ATPgS/Mg2+ at MCM6, 4, 7; ADP at MCM2, 3; MCM5 site empty; Buffer S: 25 mM Hepes pH 7.5, 50 mM KCl, 5 mM Mg acetate, 2 mM DTT, 100 uM ATPgS; 4 uM fork DNA applied to StrepTrap-bound CMG, eluted with 15 mM desthiobiotin; binding temperature not stated (stored overnight at 4 C)
Settings: protein: recombinant; tags: MCM4 N-terminal His8-TEV; Psf2 C-terminal TEV-2xStrepII; copies: 1;1;1;1;1;1;1;1;1;1;1; fork: 40 bp duplex, 30 nt 3' poly-dT tail (strand 1) and 30 nt 5' GC-rich tail (strand 2)

B1: fork DNA 70T/70GC (dsDNA)
DNA 1: CGTTTTACAACGTCGTGACTGGGCACTTGATCGGCCAACCTTTTTTTTTTTTTTTTTTTTTTTTTTTTTT
DNA 2: CAGGCAGGCAGGCAGGCAGGCAGGCAGGCAGGTTGGCCGATCAAGTGCCCAGTCACGACGTTGTAAAACG
B1: binds.
